Reference: publication PMC12573921, “‘Mix-it-up’: accessible time-resolved cryo-EM on the millisecond timescale” (IUCrJ, 2025)

Columns and labels:
cryo-EM structure = target: the molecule itself; experiment: cryo-EM structure
[1] = target: the molecule itself; experiment: cryo-EM structure; 8.6 µM GroEL + 17.1 µM GroES on the grid, 83.3 mM ATP with gold fiducials sprayed with MIU, 300 ms

B1: Cowpea chlorotic mottle virus (CCMV) coat protein (natural protein)
chain: MSTVGTGKLTRAQRRAAARKNKRNTRVVQPVIVEPIASGQGKAIKAWTGYSVSKWTASCAAAEAKVTSAITISLPNELSSERNKQLKVGRVLLWLGLLPSVSGTVKSCVTETQTTAAASFQVALAVADNSKDVVAAMYPEAFKGITLEQLTADLTIYLYSSAALTEGDVIVHLEVEHVRPTFDDSFTPVY
notes: also called CCMV capsid; copies: 180
- binding result (cryo-EM structure): binds

B2: E. coli GroES (natural protein, UniProt P0A6F9 1-97, looked up)
chain: MNIRPLHDRVIVKRKEVETKSAGGIVLTGSAAAKSTRGEVLAVGNGRILENGEVKPLDVKVGDIVIFNDGYGVKSEKIDNEEVLIMSESDILAIVEA
notes: GroES co-chaperonin of E. coli; purified as in Godek et al., 2024; source: T7 Express E. coli, Trc-promoted GroES/GroEL plasmid, purified (ion exchange, FFSP column at pH 4.6, Superdex 75); gift from the Steven Johnson laboratory
- stoichiometry N [1]: 7
